# Assay results: the supplement of paper PMC10567573
# B1: KCNA3 (parent)
# chain: YQSGGRIRRPVNVPIDIFSEEIRF
# B2: TSN (parent)
# chain: AFVVYLETETLVTREAVTEILGIE
# Variants of: B1
# Assay: protein stability index of a GFP-peptide fusion (GPS, HEK-293T) (PSI 1-6); higher = more stable
# Settings: c terminus: a fixed tail appended
# 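Further: lentivirally expressed fusions sorted by FACS into six bins by GFP to DsRed ratio, PSI derived from sequencing read proportions per bin multiplied by bin number.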
row,Variant,protein stability index
1,YQSGGRIRRPVNVPIDIFSEEIRV,2.42
2,YQSGGRIRRPVNVPIDIFSEEIRW,1.66
3,YQSGGRIRRPVNVPIDIFSEEIRT,2.52
4,YQSGGRIRRPVNVPIDIFSEEIRS,2.4
5,YQSGGRIRRPVNVPIDIFSEEIRR,2.38

# Variants of: B2
# Assay: as above
# Settings: c terminus: a fixed tail appended
row,Variant,protein stability index
1,AFVVYLEKETLVTREAVTEILGIE,2.53
2,AFVVYLERETLVTREAVTEILGIE,4.36
3,AFVVYLENETLVTREAVTEILGIE,3.62
4,AFVVYLESETLVTREAVTEILGIE,2.93
5,AFVVYLEEETLVTREAVTEILGIE,1.4
6,AFVVYLEVETLVTREAVTEILGIE,2.41
7,AFVVYLECETLVTREAVTEILGIE,2.57
8,AFVVYLEYETLVTREAVTEILGIE,1.7
9,AFVVYLEHETLVTREAVTEILGIE,3.17
10,AFVVYLEQETLVTREAVTEILGIE,2.06
11,AFVVYLEDETLVTREAVTEILGIE,1.94
12,AFVVYLEIETLVTREAVTEILGIE,2.34
13,AFVVYLEAETLVTREAVTEILGIE,2.27
14,AFVVYLEGETLVTREAVTEILGIE,2.1
15,AYVVYLETETLVTREAVTEILGIE,2.83
16,AMVVYLETETLVTREAVTEILGIE,2.88
17,AGVVYLETETLVTREAVTEILGIE,1.88
18,AAVVYLETETLVTREAVTEILGIE,1.97
19,ATVVYLETETLVTREAVTEILGIE,2.74
20,ANVVYLETETLVTREAVTEILGIE,2.45
21,AEVVYLETETLVTREAVTEILGIE,2.49
22,AQVVYLETETLVTREAVTEILGIE,1.86
23,ARVVYLETETLVTREAVTEILGIE,1.72

row,Variant,protein stability index
1,AIVVYLETETLVTREAVTEILGIE,2.72
2,ALVVYLETETLVTREAVTEILGIE,2.25
3,AVVVYLETETLVTREAVTEILGIE,1
4,APVVYLETETLVTREAVTEILGIE,3.41
5,AHVVYLETETLVTREAVTEILGIE,1.48
6,ADVVYLETETLVTREAVTEILGIE,3.68
7,AWVVYLETETLVTREAVTEILGIE,1.84
8,AKVVYLETETLVTREAVTEILGIE,1.78
9,ASVVYLETETLVTREAVTEILGIE,2.36
10,AFVVYLETETMVTREAVTEILGIE,3.03
11,AFVVYLETETNVTREAVTEILGIE,2.14
12,AFVVYLETETAVTREAVTEILGIE,2.69
13,AFVVYLETETSVTREAVTEILGIE,2.48
14,AFVVYLETETPVTREAVTEILGIE,1.97
15,AFVVYLETETEVTREAVTEILGIE,1.73
16,AFVVYLETETTVTREAVTEILGIE,1.64
17,AFVVYLETETDVTREAVTEILGIE,2.34
18,AFVVYLETETQVTREAVTEILGIE,3.4
19,AFVVYLETETRVTREAVTEILGIE,2.65
20,AFVVYLETETVVTREAVTEILGIE,2.74
21,AFVVYLETETGVTREAVTEILGIE,2.58
22,AFVVYLETETHVTREAVTEILGIE,3.08
23,AFVVYLETETWVTREAVTEILGIE,2.15

row,Variant,protein stability index
1,AFVDYLETETLVTREAVTEILGIE,2.41
2,AFVLYLETETLVTREAVTEILGIE,2.21
3,AFVHYLETETLVTREAVTEILGIE,2.19
4,AFVKYLETETLVTREAVTEILGIE,1.56
5,AFVTYLETETLVTREAVTEILGIE,1.13
6,AFVRYLETETLVTREAVTEILGIE,1.45
7,AFVWYLETETLVTREAVTEILGIE,2.92
8,AFVPYLETETLVTREAVTEILGIE,2.66
9,AFVCYLETETLVTREAVTEILGIE,2.2
10,AFVQYLETETLVTREAVTEILGIE,1.36
11,AFVNYLETETLVTREAVTEILGIE,2.09
12,AFVYYLETETLVTREAVTEILGIE,2.61
13,AFVEYLETETLVTREAVTEILGIE,2.07
14,AFVGYLETETLVTREAVTEILGIE,2.53
15,AFVAYLETETLVTREAVTEILGIE,2.54
16,AFVSYLETETLVTREAVTEILGIE,1.57
17,AFVVALETETLVTREAVTEILGIE,2
18,AFVVTLETETLVTREAVTEILGIE,3.32
19,AFVVCLETETLVTREAVTEILGIE,2.94
20,AFVVKLETETLVTREAVTEILGIE,1.14
21,AFVVRLETETLVTREAVTEILGIE,2.97
22,AFVVFLETETLVTREAVTEILGIE,1.99
23,AFVVELETETLVTREAVTEILGIE,2.73

row,Variant,protein stability index
1,AFVVQLETETLVTREAVTEILGIE,1.91
2,AFVVPLETETLVTREAVTEILGIE,2.87
3,AFVVLLETETLVTREAVTEILGIE,2.45
4,AFVVSLETETLVTREAVTEILGIE,1.77
5,AFVVHLETETLVTREAVTEILGIE,1.59
6,AFVVNLETETLVTREAVTEILGIE,2.13
7,AFVVVLETETLVTREAVTEILGIE,3.44
8,AFVVGLETETLVTREAVTEILGIE,2.5
9,AFVVILETETLVTREAVTEILGIE,4.04
10,AFVVDLETETLVTREAVTEILGIE,2.68
11,AFVVYLETETLTTREAVTEILGIE,4.69
12,AFVVYLETETLQTREAVTEILGIE,1.94
13,AFVVYLETETLNTREAVTEILGIE,2.9
14,AFVVYLETETLDTREAVTEILGIE,4.41
15,AFVVYLETETLMTREAVTEILGIE,3.5
16,AFVVYLETETLPTREAVTEILGIE,1.74
17,AFVVYLETETLGTREAVTEILGIE,2.73
18,AFVVYLETETLETREAVTEILGIE,2.35
19,AFVVYLETETLHTREAVTEILGIE,2.21
20,AFVVYLETETLRTREAVTEILGIE,2.51
21,AFVVYLETETLITREAVTEILGIE,3.19
22,AFVVYLETETLATREAVTEILGIE,3.16
23,AFVVYLETETLLTREAVTEILGIE,2.56

row,Variant,protein stability index
1,AFVVYLETSTLVTREAVTEILGIE,2.9
2,AFVVYLETATLVTREAVTEILGIE,2.65
3,AFVVYLETLTLVTREAVTEILGIE,1.46
4,AFVVYLETITLVTREAVTEILGIE,2.44
5,AFVVYLETGTLVTREAVTEILGIE,3.65
6,AFVVYLETCTLVTREAVTEILGIE,2.38
7,AFVVYLETDTLVTREAVTEILGIE,3.4
8,AFVVYLETMTLVTREAVTEILGIE,2.42
9,AFVVYLETWTLVTREAVTEILGIE,3.68
10,AFVVYLETNTLVTREAVTEILGIE,3.46
11,AFVVYLETRTLVTREAVTEILGIE,1.65
12,AFVVYLYTETLVTREAVTEILGIE,2.77
13,AFVVYLITETLVTREAVTEILGIE,3.57
14,AFVVYLLTETLVTREAVTEILGIE,2.42
15,AFVVYLDTETLVTREAVTEILGIE,3.68
16,AFVVYLKTETLVTREAVTEILGIE,2.63
17,AFVVYLCTETLVTREAVTEILGIE,1.79
18,AFVVYLATETLVTREAVTEILGIE,3.23
19,AFVVYLPTETLVTREAVTEILGIE,2.19
20,AFVVYLTTETLVTREAVTEILGIE,2.4
21,AFVVYLHTETLVTREAVTEILGIE,3.41
22,AFVVYLQTETLVTREAVTEILGIE,3.51
23,AFVVYLWTETLVTREAVTEILGIE,3.69

row,Variant,protein stability index
1,AFVVYLSTETLVTREAVTEILGIE,1.76
2,AFVVYLNTETLVTREAVTEILGIE,3.66
3,AFVVYLGTETLVTREAVTEILGIE,2.77
4,AFSVYLETETLVTREAVTEILGIE,1.15
5,AFEVYLETETLVTREAVTEILGIE,1.9
6,AFAVYLETETLVTREAVTEILGIE,2.32
7,AFFVYLETETLVTREAVTEILGIE,1.99
8,AFNVYLETETLVTREAVTEILGIE,2.37
9,AFHVYLETETLVTREAVTEILGIE,2.3
10,AFGVYLETETLVTREAVTEILGIE,1.67
11,AFDVYLETETLVTREAVTEILGIE,2.37
12,AFPVYLETETLVTREAVTEILGIE,2.89
13,AFTVYLETETLVTREAVTEILGIE,3.95
14,AFQVYLETETLVTREAVTEILGIE,2.75
15,AFLVYLETETLVTREAVTEILGIE,2.35
16,AFYVYLETETLVTREAVTEILGIE,2.86
17,AFRVYLETETLVTREAVTEILGIE,1.34
18,AFMVYLETETLVTREAVTEILGIE,1.97
19,AFKVYLETETLVTREAVTEILGIE,1.81
20,AFVVYYETETLVTREAVTEILGIE,2.2
21,AFVVYQETETLVTREAVTEILGIE,1.84
22,AFVVYDETETLVTREAVTEILGIE,2
23,AFVVYHETETLVTREAVTEILGIE,1.37

row,Variant,protein stability index
1,AFVVYNETETLVTREAVTEILGIE,2.69
2,AFVVYPETETLVTREAVTEILGIE,1.85
3,AFVVYSETETLVTREAVTEILGIE,1.83
4,AFVVYVETETLVTREAVTEILGIE,4.67
5,AFVVYTETETLVTREAVTEILGIE,2.05
6,AFVVYAETETLVTREAVTEILGIE,1.34
7,AFVVYFETETLVTREAVTEILGIE,3.12
8,AFVVYEETETLVTREAVTEILGIE,2.25
9,AFVVYKETETLVTREAVTEILGIE,2.03
10,AFVVYIETETLVTREAVTEILGIE,3.08
11,AFVVYCETETLVTREAVTEILGIE,2.38
12,AFVVYGETETLVTREAVTEILGIE,1.77
13,AFVVYRETETLVTREAVTEILGIE,1.24
14,AFVVYLETEHLVTREAVTEILGIE,2.83
15,AFVVYLETEFLVTREAVTEILGIE,3.32
16,AFVVYLETEQLVTREAVTEILGIE,1.68
17,AFVVYLETEMLVTREAVTEILGIE,1.36
18,AFVVYLETEVLVTREAVTEILGIE,2.5
19,AFVVYLETEALVTREAVTEILGIE,1.65
20,AFVVYLETECLVTREAVTEILGIE,2.82
21,AFVVYLETELLVTREAVTEILGIE,2.29
22,AFVVYLETEPLVTREAVTEILGIE,2.45
23,AFVVYLETEELVTREAVTEILGIE,1.39

row,Variant,protein stability index
1,AFVVYLETERLVTREAVTEILGIE,2.22
2,AFVVYLETEDLVTREAVTEILGIE,2.79
3,AFVVYLETESLVTREAVTEILGIE,2.76
4,AFVVYLETEYLVTREAVTEILGIE,2.36
5,AFVVYLETEKLVTREAVTEILGIE,3.37
6,GFVVYLETETLVTREAVTEILGIE,3.71
7,CFVVYLETETLVTREAVTEILGIE,2.64
8,EFVVYLETETLVTREAVTEILGIE,3.39
9,IFVVYLETETLVTREAVTEILGIE,3.49
10,LFVVYLETETLVTREAVTEILGIE,3.38
11,WFVVYLETETLVTREAVTEILGIE,2.42
12,KFVVYLETETLVTREAVTEILGIE,2.54
13,FFVVYLETETLVTREAVTEILGIE,3.77
14,NFVVYLETETLVTREAVTEILGIE,3.19
15,RFVVYLETETLVTREAVTEILGIE,4.12
16,HFVVYLETETLVTREAVTEILGIE,2.54
17,SFVVYLETETLVTREAVTEILGIE,2.71
18,QFVVYLETETLVTREAVTEILGIE,2.11
19,DFVVYLETETLVTREAVTEILGIE,1.74
20,TFVVYLETETLVTREAVTEILGIE,2.55
21,MFVVYLETETLVTREAVTEILGIE,2.61
22,PFVVYLETETLVTREAVTEILGIE,2.44
